The values that follow come from the DeepSol protein solubility set.

The data set in a line: soluble on expression in E. coli; label from the status in PepcDB or PDB records.
For “PTARRDIRFAWSGDTAGQGWGIDDEGMRTYATMAQHQPDFFIHSGDTIYADGPMKDEVEKDGAVIWKNTTLIDEKRKVAETLAEFRGQWKYNLMDEHVQAMNALCPTFFQWDDHEVVNNWSDAKDLSADDRYTEKSVHVLQSRAARAFHEMTPLRITPAEPGRVYRKISYGPMLDVFFLDLRSYRGPNGASMEDEITDQSRILGAEQLAWIKRELAASTATWKVIASDMPIGLIVWDNWKEKAGAEAISNGDHGPAKGRELEIADLLRFIKSAGVRNTVWFTADVHYTAAHHYSPERAQFQDFDPFWEFVSGPLHAGTFGPNDLDRTFGPEVKFVKAPTPEQGVNLPPSMGLQFFGLVDIDAASQQMKVRLMDRGNTELWSVTLDPVLSAI”, the “soluble on expression in E. coli” value is listed as “not soluble”.

Consider “PVNDEVEAVKNMHLIGQSQVAFREWNQKWVDLSLNSFADIENNLFEAEGYNHSFRFLKASHQIDQIESQITLIEEDIAAIRNALADLEKQESKNSGRVLHALDLFEELQHRVAENSEQYGQALDEIEKQLENIQSEFSQFVTLNSSGDPVEAAVILDNTENHILALSHIVDRVPALVTTLSTELPDQLQDLEAGYRKLIDANYHFVETDIEARFHLLYEAFKKNQENIRQLELDNAEYENGQAQEEINALYDIFTREIAAQKVVENLLATLPTYLQHMKENNTLLGEDIARLNKTYLLPETAASHVRRIQTELESFEAAIVEVTSNQEEPTQAYSVLEENLEDLQTQLKDIEDEQISVSERLTQIEKDDINARQKANVYVNRLHTIKRYMEKRNLPGIPQTFLKLFFTASNNTEDLMVELEQKMINIESVTRVLEIATNDMEALETETYNIVQYATLTEQLLQYSNRYRSFDERIQEAFNEALDIFEKEFDYHASFDKISQALEVAEPGVTNRFVTSYEKTRETI”, for which the “soluble on expression in E. coli” value is “not soluble”.

Turning to “MMQPVIRKNHMDIAWHEYTDENGADIPVTQASLTEKASIIGRVGIMFLSCGTGAWRVRSSMNTLAEIMGITCTADIGLMSIEYTCFDGEEGFTQSLCLTNTGVNTSKLNRLEHFIREFEIDGKDMSGEELHTLLDDIER”, the “soluble on expression in E. coli” value is “not soluble”.

“MNYVKIGVGGPVGSGKTALIEKLTRILADSYSIGVVTNDIYTKEDAEFLIKNSVLPKERIIGVETGGCPHTAIREDASMNLEAVEELVQRFPDIQIVFIESGGDNLSATFSPELADATIYVIDVAEGDKIPRKGGPGITRSDLLVINKIDLAPYVGASLEVMERDSKKMRGEKPFIFTNLNTNEGVDKIIDWIKKSVLLEGV”: the “soluble on expression in E. coli” value is listed as “soluble”.

As to “MGSDKIHHHHHHMLEATYHSLEDLAEAIGVALSAPITIEDRNHRLLAYSTHTADTDPARIATIIGRRVPESVIDQLWKDEVIQNLAAQDEPLIISARTGVGLNDRVAIAIKQDTEILGYIWSIARSTPFSETELSDFKKGALLAQRQLLAIDMQKKRQEEKTEQFFFELLHEDMPESEILKTFSKLHVAPPGISRLMVIRFSEAITPRLADRLRYLLTIQQTVRPLLYAYDETDFILWISTNDQDAHHERLQFDAFIQSFRQMLAERFNYTNFISASSEVFTGVQSIPERYEETGIVLRLKDAFPFELSTVTRYERLGLFQLLPIFSERLRRRTVRLEEIERLRSYDEKHAASLCETLEWFLHYDGNVKQVASHLHVHPNTILYRMRRIEEEAGIRMESLPERALLYLYLKADRYPL”, the “soluble on expression in E. coli” value is “not soluble”.

Consider “MGRIIILDENTANQIAAGEVVERPASVVKELVENSIDAGSTNISVEINNGGISFIKVVDNGSGIEEDDIEIAFERHATSKIRRASDLEAITSLGFRGEALASIASVSTVEVTSRPAHREYGRYVKIQGGTVLESGQVGCPAGTTFIVRDLFYNTPARFKFLKKDSTEAGYVSDIVSRIALGNPDISFRLINNKNTVIHTPGNNDLLSTIYSLYGKETAKECMEISYEDETVKITGYAGSPEIARANRNYQSIYLNKRYIKNKVISSAIDEAYKTYLMKNKFAFIVLYIELNPLLVDVNVHPTKMEVRFSREQEIFRAVYHAVNNALLSKTHIRNVSLKDSPKNYFKFEQSSKKEADYVQQRLDTDRKFSGYNYDEDFKTEKTNTSKSTWENLIVKESANINKRKDETIDEVINKNEVGDKNKVISEDEVINKDEVINKDKVINKDKVINKGEVVNKVNVNEVENESVDNLINGQISGLVNWAINEPINKTNDKLIEKSDGTALKGTGEECYNFDKSGYDNILKDVSDKPKDNRNDVDNNADTNFEKIRDGKDTRPQQDIERNVFLDARIIGQVFSTYILLQNEDDLIIIDQHAAHERIRFEELKEKYARNESLAQYLLTPVVIELTNQEIVFLEEEKELFNKLGFIFESFGNNSIILRSVPIPDEGVGVKEAFLEVVDFLMSKGRKYDKIIEEDALYQIACKSAVKANKKLDEIEIKAILDKLNMLQNPYTCPHGRPTVVKITKYEFEKMFKRIV”, for which the “soluble on expression in E. coli” value is “not soluble”.

With “MDVEAFYKISYGLYIVTSESNGRKCGQIANTVFQLTSKPVQIAVCLNKENDTHNAVKESGAFGVSVLELETPMEFIGRFGFRKSSEFEKFDGVEYKTGKTGVPLVTQHAVAVIEAKVVKECDVGTHTLFVGEAVDAEVLKDAEVLTYADYHLMKKGKTPRTATVYFESK”, the “soluble on expression in E. coli” value is listed as “soluble”.

For the sequence “MGSDKIHHHHHHMARPRKTIVSLDDTPYYHCCSRVVRKAFLCGIDSATGENFEHRRAWVEGRMFELATIFAMDICAYAVMSNHLHIVLRVDAEQAKQWTDKQVLIQWHKGFKGTLLTQRFVKDEVLDEFELKTVIDSVAVYRERLTSISWFIRALCEPIARMANKEDGCTGHFWEGRFKSQALLDEAAVLACMAYVDLNPVRAKMAATPETSDYTGIQRRINAALKGEQPNELLPFLGNERDNMPKGLMFSAKDYLLLVEDTGRIIRDDKRGAISRSSQYILDRLNIPTENWLKITKDFGHLFKGAVGSLQALSQYCEHLERKRRQSAANCQRWLCG”, the “soluble on expression in E. coli” value is reported as “not soluble”.

As for “MGSDKIHHHHHHMTPRDTVAAFPATSQQSAIRATPFVWIEPANIPPRKWLYGHHLIRGYVSLTVAPGATGKSSLLIADALAMSANRNLVGTPVYAGRPLRVWIWNLEDPIDELQRRITATAIQYQIHSTDIEGRLFVDSGRDQSLCIARQGHNGIEILDPVIDALQAEILAREIDVLIVDPFVSSHQVSENDNGAIDAVAKKWGAIADRTGCAIELVHHLRKLPHGIEATAESARGAVSLVAAARSVRVLNRMAKEEALQCGLTSNKGHFKVSDDKNNLAAATDSENWFRMESVQLDNGDNVGVVVQWDKPDPFDGITPRHLLAVQKAIDGKDYRQNVQATDWVGQHIGHIVGLDPAKPHDKNRLKSLIKTWINNGALIADEIMNKKGRPTPVIAVGKWVTAAEVAATNVADDEFPLG”, the “soluble on expression in E. coli” value was “not soluble”.

Consider “MGSDKIHHHHHHMIQGKKFISPGTWFSMIYPSDWSEFEDGEGSFLFYNPEHWTGNFRISAYKEDAAAPGGMNYGKDSVRQELKENPSASLVKVGHLECAYSKEMFEEEGIYYTSHLWVTGIDNVAFECSFTVPKGEHVDEAEKIISSLEIRKDGQKYPAEIIPIRLSEIYQVNEAYEWVTDTVKTQLKKDFQGLEEDLQKIQDVIDSGVLSPKKKEPWLAFGIAICTILANEVEGMEWMTLVDGNREVPVLRYEGSEQLIDPMKLLWSRVRAGETCEVAEAYKQALIH”, for which the “soluble on expression in E. coli” value is recorded as “not soluble”.

Turning to “SEPTAPSLTEEDLTEVKKDALENLRVYLCEKIIAERHFDHLRAKKILSREDTEEISCRTSSRKRAGKLLDYLQENPKGLDTLVESIRREKTQNFLIQKITDEVLKLRNIKLEHLKGLKCSSCEPFPDGATNNLSRSNSDESNFSEKLRASTVMYHPEGESSTTPFFSTNSSLNLPVLEVGRTENTIFSSTTLPRPGDPGAPPLPPDLQLEEEGTCANSSEMFLPLRSRTVSRQ”, the “soluble on expression in E. coli” value is recorded as “soluble”.

Regarding “AIAKILLVFDFDNTIIDDNSDTWIVQCAPNKKLPIELRDSYRKGFWTEFMGRVFKYLGDKGVREHEMKRAVTSLPFTPGMVELFNFIRKNKDKFDCIIISDSNSVFIDWVLEAASFHDIFDKVFTNPAAFNSNGHLTVENYHTHSCNRCPKNLCKKVVLIEFVDKQLQQGVNYTQIVYIGDGGNDVCPVTFLKNDDVAMPRKGYTLQKTLSRMSQNLEPMEYSVVVWSSGVDIISHLQFLIKD”, the “soluble on expression in E. coli” value is “soluble”.

Take “ALSGGFIKGFAHLGVIQALLEHDIKPDIISGVSAGALAGVFYADGNEPYRVLDYFSGHKFQDLTKLVIPKVGLFALGEFIDFLKSNLKAQKLEDLKLPLIITATDLDHGRSMHFHKGNIAERVAASCCMPVLFTPVKIGNTHYVDGGLLMNLPVSTIRNECEKVVAVNVSPLMAEKYKMNIVSIAMRSYHFMFRANTFPERDNCDLLIEPYNLEGYSNTELEKAEEIFEQGYNTASE”: the “soluble on expression in E. coli” value is “not soluble”.
